Experimental data: US20050221343A1
Values joined by “and” are separate entries in the source; they are usually repeats but may differ in a detail not shown here. Equal entries are not always repeated.

What was measured:
Assay in all cases: cell-based or functional assay
[1] = molecular target: (GFP S10)-L1-sulfite reductase-L2-(GFP S11) (Pyrobaculum aerophilum)
[2] = molecular target: sulfite reductase-GFP S10-11 OPT fusion protein (Pyrobaculum aerophilum; Aequorea victoria)
[3] = molecular target: (GFP S10 SM5)-L1-sulfite reductase-L2-(GFP S11 SM5) (Pyrobaculum aerophilum)
[4] = molecular target: (GFP S10 A10)-L1-NdeI::HPS::BamH1-L2-(GFP S11 SM5) (Pyrobaculum aerophilum)
(GFP S10 A10)-L1-NdeI::HPS::BamH1-L2-(GFP S11 SM5) (Pyrobaculum aerophilum), sequence (main, as listed by the source): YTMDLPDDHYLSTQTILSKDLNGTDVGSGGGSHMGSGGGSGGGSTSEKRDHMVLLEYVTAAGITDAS

(GFP S10 SM5)-L1-sulfite reductase-L2-(GFP S11 SM5) (Pyrobaculum aerophilum), sequence (main, as listed by the source): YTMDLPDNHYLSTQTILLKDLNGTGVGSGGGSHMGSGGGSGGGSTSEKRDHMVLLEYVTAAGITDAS

GFP 1-9 OPT (from UniProt P42212 1-197)
complementation efficiency relative to the C-terminal GFP S11 M3 + GFP 1-10 OPT format [1]: 0.033
tagged fragment concentration at which complementation fluorescence plateaus, with limiting 2.5 µM GFP 1-9 OPT [2]: > 2.5 µM
complementation rate [3]: 20 fold
complementation signal relative to detection with GFP 1-10 OPT [4]: 0.2 and 0.25
